Results reported in the nanobody polyreactivity screen of Harvey et al. (2022).

test: yeast display, Sf9 membrane polyspecificity reagent, FACS + sequencing; frameworks hold sequencing errors
Outline: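 In a synthetic yeast display library (Saccharomyces cerevisiae BJ5465), nanobody expression was induced with galactose for 36–48 hours. FACS gates were set low and high (top ~1%) using anti-HA fluorescence for expression and streptavidin fluorescence for binding of the Sf9 membrane reagent. Each polyreactivity label is drawn from the gate of origin.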

| Sequence | polyreactivity (PSR sort gate) |
| --- | --- |
| QVQLVESGGGLVQAGGSLRLSCAASGLTFSGYSMGWYRQAPGKERELVAAITSGGNTYYADSVNGRFTISRDNAKNTVYLQMNSLKPEDTAVYYCNVADWRRWGYDYWGQGTQVTVSS | low polyreactivity |
| QVQLVESGGGLVQAGGSLRLSCAASGLTFSGYVMGWYRQAPGKERELVAAISSSGGRTYYADSVKGRFTISRDNAKNTVYLQMNSLKPEDTAVYYCAARNKYGGYPYGYDYWGQGTQVTVSS | high polyreactivity |
| QVQLVESGGGLVQAGGSLRLSCAASGLTFSIYAMGWYREAPGKERELVAAITGRGGRTYYADSVKGRFTISRDNAKNTVYLQMHSLKPEDTAVYYCAARYRGTDFDYWGQGTQVTVSS | high polyreactivity |
| QVQLVESGGGLVQAGGSLRLSCAASGLTFSIYAMGWYRQEPGKERELVARITWNSGSTYYADSVKGRFTISRDNAKNTVYLQMNSLKPEDTAVYYCNARFWGSGVGDLWEGVRYDYWGQGTQVTVSS | high polyreactivity |
| QVQLVESGGGLVQAGGSLRLSCAASGLTFSKNVMGWYRQAPGKERELVAAISGITSSTYYADSVKGRFTISRDNAKNTVYLQMNSLKPEDTAVYYCAADLSFSRPGRFGYWGQGTQVTVSS | high polyreactivity |
| QVQLVESGGGLVQAGGSLRLSCAASGLTFSKYVMGWYIQAPGKERELVAAITWSGGRTYYADSVKGRFTISRDNAKNTVYLQMNSLKPEDTAVYYCNRKLKGLGYEYDYWGQGTQVTVSS | high polyreactivity |
| QVQLVESGGGLVQAGGSLRLSCAASGLTFSPNAMGWYRQAPRKERELVAAISSSGGRTNYADSVKGRFTISRDNAKNTVYLQMNSLKPEDTAFYYCAARFYKTYPRMNYWGQGTQVTVSS | high polyreactivity |
| QVQLVESGGGLVQAGGSLRLSCAASGLTFSPYAMGWSRQAPGKERELVATITIGGSTKYADSVKGRFTISRDNAKNTVYLQMNSLKPEDSAVYYCAVRSGYVTRSYEYWGQGTQVTVSS | low polyreactivity |
| QVQLVESGGGLVQAGGSLRLSCAASGLTFSRYAMGWYRQAPGKERELVAAISSSGTRTYYADSVKGRFTISPDNPKNTVYLQMNSLKPEDTAVYYCNAYYAPRGYGYWGQGTQVTVSS | high polyreactivity |
| QVQLVESGGGLVQAGGSLRLSCAASGLTFSRYAMGWYRQAPGKERELVAAITWSGSSTYYADSVKGRFTISRDNAKNTVYLQMNSLKPEDTAVYYCAARYGYSRGPYYRSDYWGQGTQVNVSS | high polyreactivity |
| QVQLVESGGGLVQAGGSLRLSCAASGLTFSVNAMGWYRQAPGKERELVAAINYGGGSTYYADSVKGRFTISRDNAKNTVYLQMNSLKPEDTAVYYCAAVPYPRGKGYDYWGQGTQVTVSS | high polyreactivity |
| QVQLVESGGGLVQAGGSLRLSCAASGLTFSVYAMGWYRQAPGKERELVAAITSSGRTYYADSVKGRFTISRDNAKNTVYLQMNSLKPEDTAVYYCAAGYKSGPRRYYYWGQGTQVTVSS | high polyreactivity |
| QVQLVESGGGLVQAGGSLRLSCAASGLTFSVYTMGWYRQAPGKERELVAAITTSGGRTYYADSVKGRFTISRDNAKNTVYLQMNSLKPVDPAVYYCAAVRTGDTTGTMGYWGQGTQVTVSS | high polyreactivity |
| QVQLVESGGGLVQAGGSLRLSCAASGLTFSYYAMGWYRQAPGKERELVAAISWSGGITYYADSVKGRFKISRDNAKNTVYLQMNSLKPEDTAVYYCAADGYPTLFDYWGQGTQVTVAS | high polyreactivity |
| QVQLVESGGGLVQAGGSLRLSCAASGLTFSYYAMGWYRQAPGKERELVAGISSSGGTTYYADSVKGRFTISRDNAKNTVYLQMNSLKPEDTAVYYCATRRHYGSFWYDYWGQGTQVTVSS | high polyreactivity |
| QVQLVESGGGLVQAGGSLRLSCAASGLTFTAYAMGWYRQAPGKERELVAAISVRGGRTYYADSVKGRFTISRDNAKNTVYLQMNSLKPEDTAVYYCNAVRFISARYDYWGQGTQVTVSS | high polyreactivity |
| QVQLVESGGGLVQAGGSLRLSCAASGLTFTGYAMGWYRQAPGKERELVAAISRGDSTYYAYSVNGRFTISRDNAKNTVYLQMNSLKPEDTAVYYCAAYKGYGRRPGVSGYYWGQGTQVTVSS | high polyreactivity |
